Values quoted from earlier work as cited in article PMC10950897, “VCF1 is a p97/VCP cofactor promoting recognition of ubiquitylated p97-UFD1-NPL4 substrates” (Nature Communications, 2024).

Target: p97 (Homo sapiens) (UniProt P55072)
Sequence (P55072 2-806): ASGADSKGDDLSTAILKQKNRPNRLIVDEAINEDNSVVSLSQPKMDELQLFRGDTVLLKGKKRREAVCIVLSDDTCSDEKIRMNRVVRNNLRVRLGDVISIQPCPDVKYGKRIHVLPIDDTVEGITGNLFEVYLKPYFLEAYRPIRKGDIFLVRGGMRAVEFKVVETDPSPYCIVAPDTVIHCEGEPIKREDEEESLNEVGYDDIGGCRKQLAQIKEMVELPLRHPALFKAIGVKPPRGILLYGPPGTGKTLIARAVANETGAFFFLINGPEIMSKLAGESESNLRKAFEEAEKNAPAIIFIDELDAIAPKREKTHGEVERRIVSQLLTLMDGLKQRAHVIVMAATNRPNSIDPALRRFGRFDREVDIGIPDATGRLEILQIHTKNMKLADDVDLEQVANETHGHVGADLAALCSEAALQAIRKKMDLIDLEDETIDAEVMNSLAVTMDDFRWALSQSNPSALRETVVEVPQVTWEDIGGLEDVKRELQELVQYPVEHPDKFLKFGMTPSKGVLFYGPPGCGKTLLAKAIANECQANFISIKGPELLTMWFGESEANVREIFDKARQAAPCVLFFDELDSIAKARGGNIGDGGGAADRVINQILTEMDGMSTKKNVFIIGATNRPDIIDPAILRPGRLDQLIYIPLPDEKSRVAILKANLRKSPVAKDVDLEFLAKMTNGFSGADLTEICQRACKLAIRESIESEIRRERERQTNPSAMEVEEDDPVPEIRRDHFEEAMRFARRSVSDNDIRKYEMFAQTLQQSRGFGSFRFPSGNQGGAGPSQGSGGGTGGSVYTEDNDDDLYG

Sequence of p47 (Q9UNZ2 whole entry): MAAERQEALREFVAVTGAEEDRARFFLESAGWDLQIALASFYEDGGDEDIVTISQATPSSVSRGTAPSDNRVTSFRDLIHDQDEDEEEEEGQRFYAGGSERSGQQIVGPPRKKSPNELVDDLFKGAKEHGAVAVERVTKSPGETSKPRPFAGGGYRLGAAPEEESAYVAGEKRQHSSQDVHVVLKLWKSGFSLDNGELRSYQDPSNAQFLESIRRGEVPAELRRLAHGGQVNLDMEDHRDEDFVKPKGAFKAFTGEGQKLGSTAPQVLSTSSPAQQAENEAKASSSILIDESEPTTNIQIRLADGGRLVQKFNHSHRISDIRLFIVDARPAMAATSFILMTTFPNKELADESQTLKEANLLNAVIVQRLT

Kd: 350 nM
Substance: p47 (from UniProt Q9UNZ2)
